Source: patent US11667688B2, “Glucagon derivative and a composition comprising a long acting conjugate of the same” (HANMI PHARM. CO., LTD., priority 2015, dated 2023)
Bridge positions count the residues as written; N and C are the ends. Square brackets hold non-standard residues; d marks the D form. Ends that are not written are not given here. Aib = CC(C)(N)C(=O)O

Molecular target: T1, human glucagon receptors (Homo sapiens, UniProt P47871)
T1 construct: a region corresponding to Open Reading Frame (ORF) in the cDNA; expressed in transfected cells
Test: cAMP activity of glucagon derivatives in CHO cell line transfected with human glucagon receptor (LANCE cAMP kit)
Type: cell-based
Details: cAMP EC50 compared with that of native glucagon; CHO cells with human glucagon receptor
Protocol: PCR was performed using a region corresponding to Open Reading Frame (ORF) in the cDNA (OriGene Technologies, Inc., USA) of human glucagon receptor gene as a template along with the following forward and reverse primers (SEQ ID NOS: 47 and 48, respectively), which include each of the EcoRI and XhoI restriction sites.
The PCR product was cloned into a known animal cell expression vector, x0GC/dhfr, to prepare a recombinant vector x0GC/GCGR.
CHO DG44 cell line cultured in DMEM/F12 (10% FBS) medium was transfected with the recombinant vector x0GC/GCGR using LIPOFECTAMINE®, and cultured in a selection medium containing G418 (1 mg/mL) and methotraxate (10 nM).
Specifically, the transfected cell line was subcultured 3 to 4 times a week, aliquoted into a 384-well plate in an amount of 6×10^3 cell lines/well, and cultured for 24 hours. Native glucagon and glucagon derivatives were suspended in Hank's balanced salt solution (HBSS) buffer containing 0.5 mM of 3-isobutyl-1-methylxanthine (IBMX), 0.1% bovine serum albumin (BSA), and 5 mM 4-(2-hydroxyethyl)-1-piperazineethanesulfonic acid (HEPES) with the culture cells, at concentrations of 200 nM and 1600 nM, respectively, continuously subjected into a 4-fold dilution 10 times, applied to a cAMP assay kit (LANCE cAMP 384 kit, PerkinElmer), and added to the cultured cells, and their fluorescence value was measured.

T1 sequence (P47871 26-477): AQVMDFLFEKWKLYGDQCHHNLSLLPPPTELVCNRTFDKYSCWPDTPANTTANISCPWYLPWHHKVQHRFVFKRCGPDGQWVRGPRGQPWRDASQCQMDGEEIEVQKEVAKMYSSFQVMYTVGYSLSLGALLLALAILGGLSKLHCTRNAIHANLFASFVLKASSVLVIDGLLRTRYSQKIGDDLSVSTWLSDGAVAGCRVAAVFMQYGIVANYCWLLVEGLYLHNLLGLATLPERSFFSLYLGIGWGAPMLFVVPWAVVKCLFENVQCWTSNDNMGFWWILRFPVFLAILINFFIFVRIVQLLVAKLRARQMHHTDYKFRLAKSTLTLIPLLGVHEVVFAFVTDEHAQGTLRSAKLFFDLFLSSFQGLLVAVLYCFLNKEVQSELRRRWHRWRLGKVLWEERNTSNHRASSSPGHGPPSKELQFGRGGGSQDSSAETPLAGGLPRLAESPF

Substance	In vitro Activity (Relative Activity of SEQ ID NO: 1, %)
HSQGTFTSDYSKYLDCDRAQDFVQWLMNT (glucagon derivative) [SEQ ID NO: 2]	0.6%
HSQGTFTSDYSKYLDSCDAQDFVQWLMNT (glucagon derivative) [SEQ ID NO: 4]	<0.1%
HSQGTFTSDYSKYLDSCEADDFVQWLMNT (glucagon derivative) [SEQ ID NO: 6]	<0.1%
HSQGTFTSDYSKYLDSCEAQDFVQWLMNT (glucagon derivative) [SEQ ID NO: 5]	0.3%
WXQGTFTSDYSKCLDERRAKDFVQWLMNT (W[Aib]QGTFTSDYSKCLDERRAKDFVQWLMNT; bridge 16-20) [SEQ ID NO: 30, glucagon derivative, X = Aib]	0.3%
WXQGTFTSDYSKYCDERRAKEFVQWLMNT (W[Aib]QGTFTSDYSKYCDERRAKEFVQWLMNT; bridge 16-20) [SEQ ID NO: 34, glucagon derivative, X = Aib]	0.2%
WXQGTFTSDYSKYLDECRAKDFVQWLMNT (W[Aib]QGTFTSDYSKYLDECRAKDFVQWLMNT; bridge 16-20) [SEQ ID NO: 26, glucagon derivative, X = Aib]	1.0%
WXQGTFVSDYSKYLDECRAKDFVQWLMNT (W[Aib]QGTFVSDYSKYLDECRAKDFVQWLMNT; bridge 16-20) [SEQ ID NO: 28, glucagon derivative, X = Aib]	<0.1%
YXQGTFCSDYSKYLDERRAKDFVQWLMNT (Y[Aib]QGTFCSDYSKYLDERRAKDFVQWLMNT; bridge 16-20) [SEQ ID NO: 41, glucagon derivative, X = Aib]	45.2%
YXQGTFCSDYSKYLDERRAKEFVQWLMNT (Y[Aib]QGTFCSDYSKYLDERRAKEFVQWLMNT; bridge 16-20) [SEQ ID NO: 38, glucagon derivative, X = Aib]	167.3%
YXQGTFTSDCSKYLDERRAKEFVQWLMNT (Y[Aib]QGTFTSDCSKYLDERRAKEFVQWLMNT; bridge 16-20) [SEQ ID NO: 36, glucagon derivative, X = Aib]	9.9%
YXQGTFTSDCSKYLDSRRAQDFVQWLMNT (Y[Aib]QGTFTSDCSKYLDSRRAQDFVQWLMNT) [SEQ ID NO: 43, glucagon derivative, X = Aib]	1.6%
YXQGTFTSDYSCYLDSRRAQDFVQWLMNT (Y[Aib]QGTFTSDYSCYLDSRRAQDFVQWLMNT) [SEQ ID NO: 13, glucagon derivative, X = Aib]	5.2%
YXQGTFTSDYSKCLDEKRAKEFVQWLMNT (Y[Aib]QGTFTSDYSKCLDEKRAKEFVQWLMNT; bridge 16-20) [SEQ ID NO: 24, glucagon derivative, X = Aib]	58.0%
YXQGTFTSDYSKYCDEKRAKEFVQWLMNT (Y[Aib]QGTFTSDYSKYCDEKRAKEFVQWLMNT; bridge 16-20) [SEQ ID NO: 23, glucagon derivative, X = Aib]	76.8%
YXQGTFTSDYSKYCDERRAKEFVQWLMNT (Y[Aib]QGTFTSDYSKYCDERRAKEFVQWLMNT; bridge 16-20) [SEQ ID NO: 35, glucagon derivative, X = Aib]	17.7%
YXQGTFTSDYSKYLCEKRAQDFVVWLMNT (Y[Aib]QGTFTSDYSKYLCEKRAQDFVVWLMNT) [SEQ ID NO: 15, glucagon derivative, X = Aib]	1.1%
YXQGTFTSDYSKYLDCKRAKEFVQWLMNT [SEQ ID NO: 14] (Y[Aib]QGTFTSDYSKYLDCKRAKEFVQWLMNT; not fully specified) [glucagon derivative, X = Aib]	18.1%
YXQGTFTSDYSKYLDEKCAKEFVQWLMNT [SEQ ID NO: 21] (Y[Aib]QGTFTSDYSKYLDEKCAKEFVQWLMNT; bridge 16-20) [glucagon derivative, X = Aib]	57.8%
YXQGTFTSDYSKYLDEKRAKCFVQWLMNT (Y[Aib]QGTFTSDYSKYLDEKRAKCFVQWLMNT; bridge 16-20) [SEQ ID NO: 25, glucagon derivative, X = Aib]	46.9%
YXQGTFTSDYSKYLDEKRAKEFVQWLMNTC (Y[Aib]QGTFTSDYSKYLDEKRAKEFVQWLMNTC; bridge 16-20) [SEQ ID NO: 12, glucagon derivative, X = Aib]	56.3%

The next lines start with the values.

In vitro Activity (Relative Activity of SEQ ID NO: 1, %)	Substance
0.7%	-SQGTFTSDYSKYLDECRAKEFVQWLMNT (bridge 15-19; also: name begins with '-': N-terminal residue before chain not given here) [SEQ ID NO: 32, glucagon derivative, no residue at position 1]
6.1%	HSQGTFTSDYSKYLDCERAQDFVQWLMNT (glucagon derivative) [SEQ ID NO: 3]
<0.1%	YSQGTFTSDYSKYLDSCEADDFVQWLMNT (glucagon derivative) [SEQ ID NO: 7]
37.9%	YXQGTFCSDYSKYLDSRRAQDFVQWLMNT (Y[Aib]QGTFCSDYSKYLDSRRAQDFVQWLMNT) [SEQ ID NO: 42, glucagon derivative, X = Aib]
61.3%	YXQGTFTSDYSKCLDERRAKDFVQWLMNT (Y[Aib]QGTFTSDYSKCLDERRAKDFVQWLMNT; bridge 16-20) [SEQ ID NO: 29, glucagon derivative, X = Aib]
12.1%	YXQGTFTSDYSKYLCEKRAKEFVQWLMNT (Y[Aib]QGTFTSDYSKYLCEKRAKEFVQWLMNT; bridge 16-20) [SEQ ID NO: 19, glucagon derivative, X = Aib]
6.3%	YXQGTFTSDYSKYLDCKRAKEFVQWLMNT (Y[Aib]QGTFTSDYSKYLDCKRAKEFVQWLMNT; bridge 17-21) [SEQ ID NO: 31, glucagon derivative, X = Aib]
4.2%	YXQGTFTSDYSKYLDCRRAQVFVQWLMRT (Y[Aib]QGTFTSDYSKYLDCRRAQVFVQWLMRT) [SEQ ID NO: 16, glucagon derivative, X = Aib]
23.2%	YXQGTFTSDYSKYLDCVRAQDFVQWLMRT (Y[Aib]QGTFTSDYSKYLDCVRAQDFVQWLMRT) [SEQ ID NO: 17, glucagon derivative, X = Aib]
299.7%	YXQGTFTSDYSKYLDECRAKEFVQWLMNT (Y[Aib]QGTFTSDYSKYLDECRAKEFVQWLMNT; bridge 16-20) [SEQ ID NO: 20, glucagon derivative, X = Aib]
4.6%	YXQGTFTSDYSKYLDEKCAKEFVQWLMNT [SEQ ID NO: 11] (Y[Aib]QGTFTSDYSKYLDEKCAKEFVQWLMNT; not fully specified) [glucagon derivative, X = Aib]
147.8%	YXQGTFTSDYSKYLDEKRCKEFVQWLMNT (Y[Aib]QGTFTSDYSKYLDEKRCKEFVQWLMNT; bridge 16-20) [SEQ ID NO: 22, glucagon derivative, X = Aib]
